Earlier results in PMC8146069.

Assays:
[1] = target: r-hirudin (recombinant hirudin, type 1 or type 2) (UniProt P01050); assay: pH profile of hirudin binding to thrombin (the measured quantity and the assay are not stated in this article)
His57 = His57 (UniProt position 406, VLTAAHCLLYP); assay: kinetics
Nterm16 = assay: kinetics
[2] = 25 °C (as for the free enzyme; inferred from the preceding sentence), µ = 0.1 (inferred from the preceding sentence), thrombin with small peptide substrate bound
[3] = 25.0 ± 0.1 °C, thrombin reacting with NPMP
[4] = 25.0 ± 0.1 °C, thrombin reacting with PPACK (2.2 × 10^−9 M, [I] << Ki)
[5] = 25.0 ± 0.1 °C, thrombin reacting with paraoxon

Sequence of r-hirudin (recombinant hirudin, type 1 or type 2) (P01050 whole entry): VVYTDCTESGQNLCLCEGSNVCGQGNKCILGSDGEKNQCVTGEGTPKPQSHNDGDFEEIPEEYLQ

For alpha-thrombin, the pKa, His57 of thrombin [1] is given as 7.1 pH units.
In the case of alpha-thrombin (Homo sapiens), the pKa (His57; [2]) is listed as 6.16 ± 0.25, the pKa (His57; 25 °C, µ = 0.1, free thrombin) is listed as 6.7 ± 0.3 and the pKa (His57; [3]) is listed as 8.0 ± 0.1. The pKa (His57; [4]) was 7.3 ± 0.2, the pKa (His57; [5]) was 7.8 ± 0.2 and the pKa (His57; thrombin binding r-hirudin) was 7.1. For the same substance, the pKa (Nterm16; [2]) was 8.95 ± 0.41, the pKa (Nterm16; 25 °C, µ = 0.1, free thrombin) was 8.4 ± 0.4 and the pKa (Nterm16; [3]) was 8.6 ± 0.2. The pKa (Nterm16; [4]) was 8.8 ± 0.3 and the pKa (Nterm16; [5]) was 9.3 ± 0.3.
